Key:
EGFR-HER3 heteromer = molecular target: T1, EGFR-HER3 heteromer (Homo sapiens, UniProt P00533+P21860); experiment: RTK-HIT BRET between HER3/Rluc8 and Grb2/Venus with untagged EGFR co-expressed; format: cell-based; conditions: HEK293FT cells, about 25 minutes of agonist stimulation
T1 construct: used to replace the C terminus of the full-length constructs (with or without Rluc8); host or cells: HEK293FT
Description: (§1) HEK293FT cells (Life Technologies) were maintained at 37°C in 5% CO2 and complete media (Dulbecco's modified Eagle's medium (DMEM) containing 0.3 mg/ml glutamine, 100 IU/ml penicillin and 100 µg/ml streptomycin (GIBCO BRL, Carlsbad, CA, USA)) supplemented with 10% foetal calf serum (FCS) and 400 µg/ml Geneticin (Gibco). Transient transfections were carried out 24 h after seeding about 550,000 cells/well of a 6-well plate. Genejuice (Merck, Kilsyth, Australia) transfection reagent was used according to the manufacturer's instructions. Cells were harvested with 0.05% Trypsin-EDTA (Gibco).
(§2) Following initial titration of cDNA amounts (data not shown), two ratios were selected for the heteromer combinations shown in Figure 2. […] BRET measurements were taken at 37°C using the VICTOR Light plate reader with Wallac 1420 software (PerkinElmer, Glen Waverley, Victoria, Australia). Filtered light emissions were sequentially measured at 400–475 and 520–540 nm. The BRET signal was calculated by subtracting the ratio of 520–540 nm emission over 400–475 nm emission for a vehicle-treated cell sample from the same ratio for a second aliquot of the same cells treated with agonist, as described previously, [35].

HER3 = molecular target: T2, HER3 (Homo sapiens, UniProt P21860); experiment: Ligand-induced BRET between HER3/Rluc8 and Grb2/Venus (+ pcDNA3); format: cell-based
T2 construct: used to replace the C terminus of the full-length constructs (with or without Rluc8); host or cells: HEK293FT
T2 sequence (P21860 20-1342): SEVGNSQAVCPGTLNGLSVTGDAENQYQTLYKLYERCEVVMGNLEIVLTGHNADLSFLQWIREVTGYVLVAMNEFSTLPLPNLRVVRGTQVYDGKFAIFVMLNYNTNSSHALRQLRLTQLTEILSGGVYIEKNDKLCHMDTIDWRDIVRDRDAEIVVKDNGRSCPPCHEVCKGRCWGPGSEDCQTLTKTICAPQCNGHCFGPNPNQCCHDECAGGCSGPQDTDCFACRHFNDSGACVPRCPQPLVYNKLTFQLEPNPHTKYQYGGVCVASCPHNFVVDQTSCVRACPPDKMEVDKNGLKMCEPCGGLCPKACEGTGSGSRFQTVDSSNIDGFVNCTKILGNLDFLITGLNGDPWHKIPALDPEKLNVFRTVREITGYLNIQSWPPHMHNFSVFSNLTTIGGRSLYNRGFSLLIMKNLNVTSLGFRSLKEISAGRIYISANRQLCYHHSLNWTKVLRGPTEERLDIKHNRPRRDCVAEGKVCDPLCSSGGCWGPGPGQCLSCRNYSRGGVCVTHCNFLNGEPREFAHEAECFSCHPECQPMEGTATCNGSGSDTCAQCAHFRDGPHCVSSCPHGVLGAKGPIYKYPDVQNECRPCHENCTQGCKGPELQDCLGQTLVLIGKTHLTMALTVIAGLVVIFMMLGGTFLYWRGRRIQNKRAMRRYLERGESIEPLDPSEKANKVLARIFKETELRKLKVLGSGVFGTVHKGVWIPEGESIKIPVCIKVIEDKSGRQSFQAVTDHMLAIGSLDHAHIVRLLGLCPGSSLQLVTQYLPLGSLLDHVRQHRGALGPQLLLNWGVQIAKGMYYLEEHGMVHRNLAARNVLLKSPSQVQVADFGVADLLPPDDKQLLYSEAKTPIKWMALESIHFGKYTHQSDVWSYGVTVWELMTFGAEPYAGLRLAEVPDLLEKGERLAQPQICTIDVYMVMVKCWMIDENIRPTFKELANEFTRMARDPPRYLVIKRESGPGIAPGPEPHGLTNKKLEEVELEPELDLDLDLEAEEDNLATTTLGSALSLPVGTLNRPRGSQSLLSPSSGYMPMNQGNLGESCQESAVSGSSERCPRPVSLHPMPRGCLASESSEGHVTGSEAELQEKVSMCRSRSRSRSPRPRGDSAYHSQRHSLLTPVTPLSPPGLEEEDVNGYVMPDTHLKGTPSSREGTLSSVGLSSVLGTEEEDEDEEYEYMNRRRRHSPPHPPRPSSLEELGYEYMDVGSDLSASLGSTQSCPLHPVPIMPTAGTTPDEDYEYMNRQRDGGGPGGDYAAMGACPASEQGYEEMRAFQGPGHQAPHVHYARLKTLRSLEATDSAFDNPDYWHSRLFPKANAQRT
Description: as §1
as §2, with “HEK293FT cells were transiently transfected with” for “Following initial titration of”, “encoding a RTK fused to Rluc8 (RTK/Rluc8) and Grb2 fused to Venus (Grb2/Venus), along with a second RTK that was untagged with respect to BRET signaling, or empty vector (pcDNA3).” for “amounts (data not shown), two ratios were selected for the heteromer combinations shown in Figure 2.”, “[35]. […]” for “[35].”
Data were analyzed using Prism 5 graphing software (GraphPad, La Jolla, CA, USA). […]

Compound: HRG: Heregulin-β1, ligand of HER3
- pEC50 (EGFR-HER3 heteromer): 7.46±0.14 (n = 5)

Compound: COc1cc2ncnc(Nc3cccc(Cl)c3)c2cc1OC.Cl [AG-1478, AG-1478 hydrochloride, reference compound]
- effect on BRET (HER3; increasing concentrations of AG-1478, pre-treated or not with 20 nM EGF or HRG): no effect

Compound: EGF: epidermal growth factor, ligand selective for EGFR
- agonist-induced BRET signal (HER3; HER3/Rluc8 + Grb2/Venus without EGFR, 1 µM agonist, kinetic): no or little BRET signal

From PMC3659105, “Profiling Epidermal Growth Factor Receptor and Heregulin Receptor 3 Heteromerization Using Receptor Tyrosine Kinase Heteromer Investigation Technology” (PLoS ONE, 2013)
